{"source": "patent US20260207759A1", "about": "(SUZHOU SUNCADIA BIOPHARMACEUTICALS, published 2026)", "binders": {"B1": {"name": "9E6-L4H2 humanized anti-CD40 antibody (antibody, human IgG1, kappa, N297A)", "heavy": "not shown", "light": "DIQLTQSPSFLSASVGDRVTITCQASEDISSNLAWYQQKPGKPPKLLIFPASNLASGVPSRFSGSGSGTEFTLTISSLQPEDFATYYCQGGYWTSTSNFGQGFGGGTKVEIKRTVAAPSVFIFPPSDEQLKSGTASVVCLLNNFYPREAKVQWKVDNALQSGNSQESVTEQDSKDSTYSLSSTLTLSKADYEKHKVYACEVTHQGLSSPVTKSFNRGEC", "notes": "human IgG1 N297A (Eu) heavy chain and kappa light chain"}, "B2": {"name": "9E6-L4H2-AAYTE anti-CD40 antibody (IgG1 with L234A, L235A, M252Y, S254T, T256E) (antibody)", "heavy": "QVQVQESGPGLVKPSDTLSLTCTVSGFSLSSYDMSWIRQPPGKGLEWIGAIGGAGGTYYASWAKSRVTISVDTSLNQVSLKLSSVTAADTAVYYCARGWTRLDLWGQGTLVTVSSASTKGPSVFPLAPSSKSTSGGTAALGCLVKDYFPEPVTVSWNSGALTSGVHTFPAVLQSSGLYSLSSVVTVPSSSLGTQTYICNVNHKPSNTKVDKKVEPKSCDKTHTCPPCPAPEAAGGPSVFLFPPKPKDTLYITREPEVTCVVVDVSHEDPEVKFNWYVDGVEVHNAKTKPREEQYNSTYRVVSVLTVLHQDWLNGKEYKCKVSNKALPAPIEKTISKAKGQPREPQVYTLPPSREEMTKNQVSLTCLVKGFYPSDIAVEWESNGQPENNYKTTPPVLDSDGSFFLYSKLTVDKSRWQQGNVFSCSVMHEALHNHYTQKSLSLSPGK", "light": "B1 light"}, "B3": {"name": "9E6-L2H1 humanized anti-CD40 antibody (antibody, human IgG1, V domains shown)", "VH": "EVQLQESGPGLVKPSDTLSLTCTVSGFSLSSYDMSWIRQPPGKGLEWIGAIGGAGGTYYASWAKSRVTISVDTSLNQVSLKLSSVTAADTAVYYCARGWTRLDLWGQGTLVTVSS", "VL": "DIQLTQSPSFLSASVGDRVTITCQASEDISSNLAWYQQKPGKPPKLLIFPASNLASGVPSRFSGSGSGTEFTLTISSLQPEDFATYYCQGGYWTSTSNFGSGFGGGTKVEIK"}, "B4": {"name": "9E6-L3H1 humanized anti-CD40 antibody (antibody, human IgG1, V domains shown)", "VH": "B3 VH", "VL": "B3 VL with S101T"}, "B5": {"name": "9E6-L2H2 humanized anti-CD40 antibody (antibody, human IgG1, V domains shown)", "VH": "B3 VH with E1Q, L4V", "VL": "B3 VL"}, "B6": {"name": "9E6-L1H1 humanized anti-CD40 antibody (antibody, human IgG1, V domains shown)", "VH": "B3 VH", "VL": "B3 VL with S101N, G102V"}, "B7": {"name": "9E6-L3H2 humanized anti-CD40 antibody (antibody, human IgG1, V domains shown)", "VH": "B3 VH with E1Q, L4V", "VL": "B3 VL with S101T"}, "B8": {"name": "9E6-L1H2 humanized anti-CD40 antibody (antibody, human IgG1, V domains shown)", "VH": "B3 VH with E1Q, L4V", "VL": "B3 VL with S101N, G102V"}, "B9": {"name": "9E6-L4H1 humanized anti-CD40 antibody (antibody, human IgG1, V domains shown)", "VH": "B3 VH", "VL": "B3 VL with S101Q"}, "B10": {"name": "9E6 human-rabbit chimeric anti-CD40 antibody (antibody, V domains shown)", "VH": "QSVRESEGGLVKPTDTLTLTCTVSGFSLSSYDMSWVRQAPGNGLEWIGAIGGAGGTYYASWAKSRSTITRNTNLNTVTLKMSSLTAADTATYFCARGWTRLDLWGQGTLVTVSS", "VL": "DIVLTQTPSPVSGAVGGTVTIKCQASEDISSNLAWYQQKPGQPPKLLIFPASNLASGVSSRFKGSGSGTEFTLTISDLECADAATYYCQGGYWTSTSNFGNGFGGGTEVVVK", "notes": "Rabbit variable regions joined to a human IgG1 constant region with N297A (Eu numbering) and a human kappa constant region"}}, "key": {"[1]": {"target": "T1, human CD40 on the cell surface (Raji cells, HEK-Blue CD40L cells, primary human B cells and DCs) (human, UniProt P25942 21-277)", "T1 sequence (P25942 21-277)": "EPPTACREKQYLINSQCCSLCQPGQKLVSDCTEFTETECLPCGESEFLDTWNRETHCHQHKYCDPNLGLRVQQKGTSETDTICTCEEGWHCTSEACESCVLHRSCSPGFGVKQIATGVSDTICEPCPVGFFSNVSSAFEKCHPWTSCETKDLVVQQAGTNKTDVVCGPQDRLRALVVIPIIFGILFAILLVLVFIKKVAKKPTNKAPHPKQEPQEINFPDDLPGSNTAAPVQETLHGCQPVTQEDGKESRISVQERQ", "assay": "cell-based or functional assay"}, "[2]": {"target": "T1, human CD40 on the cell surface (Raji …)", "assay": "cell-based or functional assay", "remark": "listed apart in the source"}, "[3]": {"target": "T1, human CD40 on the cell surface (Raji …)", "assay": "cell-based or functional assay", "remark": "listed apart in the source"}, "[4]": {"target": "T1, human CD40 on the cell surface (Raji …)", "assay": "cell-based or functional assay", "remark": "listed apart in the source"}, "[5]": {"target": "T1, human CD40 on the cell surface (Raji …)", "assay": "flow cytometry (FACS) binding to Raji cells"}, "[6]": {"target": "T2, his-tagged human CD40 recombinant protein (h-CD40-his, Acrobiosystems Cat. #CD0-H5228) (human, UniProt P25942 21-193)", "T2 construct": "Purchased reagent; also called His-tagged human CD40 antigen; not shown: His tag", "T2 sequence (P25942 21-193 limits assumed)": "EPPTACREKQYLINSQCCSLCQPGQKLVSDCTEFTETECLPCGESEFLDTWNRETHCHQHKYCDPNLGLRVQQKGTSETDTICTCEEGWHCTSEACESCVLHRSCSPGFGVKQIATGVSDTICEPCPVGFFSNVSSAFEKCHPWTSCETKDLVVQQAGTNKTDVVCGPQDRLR", "assay": "SPR (Biacore), antibody captured on anti-human Fc chip, His-tagged CD40 as analyte, 1:1 model"}, "[7]": {"target": "T3, his-tagged cynomolgus monkey CD40 recombinant protein (cyno-CD40-his, Acrobiosystems Cat. #CD0-C52H6) (cynomolgus monkey)", "T3 construct": "Purchased reagent", "assay": "SPR (Biacore), antibody captured on anti-human Fc chip, His-tagged CD40 as analyte, 1:1 model"}, "[8]": {"target": "T2, his-tagged human CD40 recombinant …", "assay": "SPR (Biacore), antibody captured on anti-human Fc chip, His-tagged CD40 as analyte, 1:1 model", "remark": "listed apart in the source"}, "[9]": {"target": "T3, his-tagged cynomolgus monkey CD40 …", "assay": "SPR (Biacore), antibody captured on anti-human Fc chip, His-tagged CD40 as analyte, 1:1 model", "remark": "listed apart in the source"}, "[10]": {"target": "human FcRn antigen (purchased from AcroBiosystem) (human, UniProt P55899 24-297; P61769 21-119)", "sequence (P55899 24-297 limits assumed, chain 1 of 2)": "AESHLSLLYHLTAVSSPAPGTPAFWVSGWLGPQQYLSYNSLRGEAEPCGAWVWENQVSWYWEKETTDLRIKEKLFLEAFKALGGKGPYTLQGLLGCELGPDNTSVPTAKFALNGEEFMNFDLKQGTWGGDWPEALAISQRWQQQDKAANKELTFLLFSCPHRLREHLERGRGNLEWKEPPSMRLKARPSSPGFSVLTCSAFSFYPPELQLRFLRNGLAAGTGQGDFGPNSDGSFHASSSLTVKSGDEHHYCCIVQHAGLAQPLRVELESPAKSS", "sequence (P61769 21-119 limits assumed, chain 2 of 2)": "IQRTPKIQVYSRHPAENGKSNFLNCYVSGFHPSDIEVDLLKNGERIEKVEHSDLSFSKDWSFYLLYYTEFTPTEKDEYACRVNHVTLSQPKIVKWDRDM", "assay": "SPR (Biacore), antibody captured on anti-human Fab chip, human FcRn as analyte, steady state model"}, "[11]": {"target": "T1, human CD40 on the cell surface (Raji …)", "assay": "cell-based or functional assay", "remark": "listed apart in the source"}, "[12]": {"target": "T1, human CD40 on the cell surface (Raji …)", "assay": "flow cytometry (FACS) binding to Raji cells", "remark": "listed apart in the source"}}, "note": "Changes are numbered by the printed parent chain. Names and notes keep the numbering of the source. Where two headings read alike, the source gives them in different places.", "data": [{"binder": "B1", "values": [{"measurement": "IC50 for the inhibition of CD40 reporter gene cell activity (Experiment 2)", "setting": "[1]", "result": 0.5, "unit": "nM"}, {"measurement": "B cell activation assay, CD19+CD69+ %, IC50", "setting": "[2]", "result": 0.14, "unit": "nM"}, {"measurement": "B cell activation assay, CD19+CD69+ MFI, IC50", "setting": "[2]", "result": 0.07, "unit": "nM"}, {"measurement": "IC50 in DC cell activation assay system, CD80 MFI", "setting": "[3]", "result": 3.44, "unit": "nM"}, {"measurement": "IC50 in DC cell activation assay system, CD86 MFI", "setting": "[3]", "result": 3.72, "unit": "nM"}, {"measurement": "IC50 in DC cell activation assay system, IL-12/23 p40", "setting": "[3]", "result": 1.85, "unit": "nM"}, {"measurement": "IC50 in DC cell activation assay system, TNFα", "setting": "[3]", "result": 0.7, "unit": "nM"}, {"measurement": "B cell activation assay, CD19+CD69+%, Donor 1, IC50", "setting": "[4]", "result": 0.44, "unit": "nM"}, {"measurement": "B cell activation assay, CD19+CD69+%, Donor 2, IC50", "setting": "[4]", "result": 0.52, "unit": "nM"}, {"measurement": "EC50", "setting": "[5]", "result": 0.87, "unit": "nM"}, {"measurement": "Kd", "setting": "[6]", "result": 0.536, "unit": "nM"}, {"measurement": "koff", "setting": "[6]", "result": 0.000221, "unit": "s⁻¹"}, {"measurement": "kon", "setting": "[6]", "result": 413000, "unit": "M⁻¹ s⁻¹"}, {"measurement": "Kd", "setting": "[7]", "result": 0.121, "unit": "nM"}, {"measurement": "koff", "setting": "[7]", "result": "6.23e-05", "unit": "s⁻¹"}, {"measurement": "kon", "setting": "[7]", "result": 514000, "unit": "M⁻¹ s⁻¹"}, {"measurement": "Kd", "setting": "[8]", "result": 0.926, "unit": "nM"}, {"measurement": "koff", "setting": "[8]", "result": 0.000377, "unit": "s⁻¹"}, {"measurement": "kon", "setting": "[8]", "result": 407000, "unit": "M⁻¹ s⁻¹"}, {"measurement": "Kd", "setting": "[9]", "result": 0.294, "unit": "nM"}, {"measurement": "koff", "setting": "[9]", "result": 0.000138, "unit": "s⁻¹"}, {"measurement": "kon", "setting": "[9]", "result": 468000, "unit": "M⁻¹ s⁻¹"}, {"measurement": "Kd", "setting": "[10]", "result": 293, "unit": "nM"}]}, {"binder": "B2", "values": [{"measurement": "Kd", "setting": "[10]", "result": 39.8, "unit": "nM"}]}, {"binder": "B3", "values": [{"measurement": "EC50", "setting": "[5]", "result": 1.99, "unit": "nM"}]}, {"binder": "B4", "values": [{"measurement": "EC50", "setting": "[5]", "result": 1.06, "unit": "nM"}]}, {"binder": "B5", "values": [{"measurement": "EC50", "setting": "[5]", "result": 1.66, "unit": "nM"}]}, {"binder": "B6", "values": [{"measurement": "EC50", "setting": "[5]", "result": 1.08, "unit": "nM"}]}, {"binder": "B7", "values": [{"measurement": "EC50", "setting": "[5]", "result": 1.15, "unit": "nM"}]}, {"binder": "B8", "values": [{"measurement": "EC50", "setting": "[5]", "result": 1.05, "unit": "nM"}]}, {"binder": "B9", "values": [{"measurement": "EC50", "setting": "[5]", "result": 0.928, "unit": "nM"}]}, {"binder": "B10", "values": [{"measurement": "Reporter gene cell activity IC50 (SEAP, HEK-Blue CD40L cells stimulated with CD40L)", "setting": "[11]", "result": 0.221, "unit": "nM"}, {"measurement": "EC50", "setting": "[12]", "result": 0.608, "unit": "nM"}, {"measurement": "EC50", "setting": "[5]", "result": 0.895, "unit": "nM"}]}]}
